Data set [1] deals with recombinant S6K1 (highly purified).
In data set [2] the target is recombinant S6K2 (highly purified).
Data set [3] concerns the target GST [GST: P08515].

This is an account of results in patent publication US20090181003.

Sequence of recombinant S6K2 (highly purified) (chain, as listed by the source): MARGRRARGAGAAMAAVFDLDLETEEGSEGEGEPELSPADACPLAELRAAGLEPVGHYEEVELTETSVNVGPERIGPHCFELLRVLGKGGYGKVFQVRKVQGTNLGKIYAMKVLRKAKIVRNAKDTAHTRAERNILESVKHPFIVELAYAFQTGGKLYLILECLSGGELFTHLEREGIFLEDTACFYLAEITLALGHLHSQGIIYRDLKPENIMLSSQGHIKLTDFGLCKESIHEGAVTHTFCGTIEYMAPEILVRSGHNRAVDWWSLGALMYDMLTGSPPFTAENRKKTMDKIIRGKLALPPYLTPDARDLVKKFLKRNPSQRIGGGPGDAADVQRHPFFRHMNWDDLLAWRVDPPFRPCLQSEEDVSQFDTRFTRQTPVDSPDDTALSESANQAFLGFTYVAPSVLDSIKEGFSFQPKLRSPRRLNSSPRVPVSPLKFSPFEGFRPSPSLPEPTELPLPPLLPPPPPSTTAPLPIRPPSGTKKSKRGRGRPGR
Sequence of GST [GST: P08515] (P08515 whole entry): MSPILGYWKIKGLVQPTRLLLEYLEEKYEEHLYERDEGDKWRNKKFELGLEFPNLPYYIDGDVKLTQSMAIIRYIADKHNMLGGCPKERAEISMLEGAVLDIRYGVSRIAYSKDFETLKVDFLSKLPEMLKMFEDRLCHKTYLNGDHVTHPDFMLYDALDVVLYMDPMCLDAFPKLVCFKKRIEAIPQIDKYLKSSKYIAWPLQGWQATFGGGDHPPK

B1: GST-P/CAF (protein)
chain: MSEAGGAGPGGCGAGAGAGAGPGALPPQPAALPPAPPQGSPCAAAAGGSGACGPATAVAAAGTAEGPGGGGSARIAVKKAQLRSAPRAKKLEKLGVYSACKAEESCKCNGWKNPNPSPTPPRADLQQIIVSLTESCRSCSHALAAHVSHLENVSEEEMNRLLGIVLDVEYLFTCVHKEEDADTKQVYFYLFKLLRKSILQRGKPVVEGSLEKKPPFEKPSIEQGVNNFVQYKFSHLPAKERQTIVELAKMFLNRINYWHLEAPSQRRLRSPNDDISGYKENYTRWLCYCNVPQFCDSLPRYETTQVFGRTLLRSVFTVMRRQLLEQARQEKDKLPLEKRTLILTHFPKFLSMLEEEVYSQNSPIWDQDFLSASSRTSQLGIQTVINPPPVAGTISYNSTSSSLEQPNAGSSSPACKASSGLEANPGEKRKMTDSHVLEEAKKPRVMGDIPMELINEVMSTITDPAAMLGPETNFLSAHSARDEAARLEERRGVIEFHVVGNSLNQKPNKKILMWLVGLQNVFSHQLPRMPKEYITRLVFDPKHKTLALIKDGRVIGGICFRMFPSQGFTEIVFCAVTSNEQVKGYGTHLMNHLKEYHIKHDILNFLTYADEYAIGYFKKQGFSKEIKIPKTKYVGYIKDYEGATLMGCELNPRIPYTEFSVIIKKQKEIIKKLIERKQAQIRKVYPGLSCFKDGVRQIPIESIPGIRETGWKPSGKEKSKEPRDPDQLYSTLKSILQQVKSHQSAWPFMEPVKRTEAPGYYEVIRFPMDLKTMSERLKNRYYVSKKLFMADLQRVFTNCKEYNPPESEYYKCANILEKFFFSKIKEAGLIDK
In the case of B1, the “in vitro acetylation (incorporation of 14C labelled acetyl groups, autoradiography)” value was “when S6K1 and S6K2 were incubated in the presence of GST-p300 HAT domain 4 or GST-P/CAF, ^14C labeled acetyl groups were indeed incorporated into the proteins” in data set [1]; “when S6K1 and S6K2 were incubated in the presence of GST-p300 HAT domain 4 or GST-P/CAF, ^14C labeled acetyl groups were indeed incorporated into the proteins” in data set [2].

B2: GST-p300 HAT domain 4 (protein)
chain: KPKRLQEWYKKMLDKAVSERIVHDYKDIFKQATEDRLTSAKELPYFEGDFWPNVLEESIKELEQEEEERKREENTSNESTDVTKGDSKNAKKKNNKKTSKNKSSLSRGNKKKPGMPNVSNDLSQKLYATMEKHKEVFFVIRLIAGPAANSLPPIVDPDPLIPCDLMDGRDAFLTLARDKHLEFSSLRRAQWSTMCMLVELHTQSQDRFVYTCNECKHHVETRWHCTVCEDYDLCITCYNTKNHDHKMEKLGLGLDDESNNQQAAATQSPGDSRRLSIQRCIQSLVHACQCRNANCSLPSCQKMKRVVQHTKGCKRKTNGGCPICKQLIALCCYHAKHCQENKCPVPFCLNIKQKLRQQQLQHRLQQAQMLRRRMASMQRTGVVGQQQGLPSPTPATPTTPTGQQPTTPQTPQPTSQPQPTPPNSMPPYLPRTQA
As to B2, the “in vitro acetylation (incorporation of 14C labelled acetyl groups, autoradiography)” value in data set [1] was “when S6K1 and S6K2 were incubated in the presence of GST-p300 HAT domain 4 or GST-P/CAF, ^14C labeled acetyl groups were indeed incorporated into the proteins”; in data set [2], “when S6K1 and S6K2 were incubated in the presence of GST-p300 HAT domain 4 or GST-P/CAF, ^14C labeled acetyl groups were indeed incorporated into the proteins”. In data set [3], the in vitro acetylation entry is recorded as “no acetylation of GST is seen under these conditions”.
